This series concerns Nc1ncnc2c1ncn2[C@@H]1O[C@H](COP(=O)(O)OP(=O)(O)OP(=O)(O)O)[C@@H](O)[C@H]1O. Put plainly: Omnia kinase assay. It is filed as biochemical, Homo sapiens. The conditions noted are these: Sox peptide co-substrate, pH 7.5, 25 mM MgCl2, 25 °C.

Usually Km stands for the substrate concentration at which the rate is half of its maximum. In the case of CLK3 (R134-T484) (Homo sapiens), the Km was 58.9 ± 20.3 µM.

Consider CLK3 (R134-T484) (Homo sapiens; A319V), for which the Km stood at 8.6 ± 4.2 µM.

The values above are taken from doi:10.1101/2020.07.01.182642v1.
